Source: US20230025129A1 (KYMAB, published 2023)
Numbering of substitutions follows the chain as printed. In names and notes the source's numbering stands. Values belong to the binder of their own block, whether it stands above or below them.

Key:
[1] = target: T1, human matriptase-2 ECD protein his tag (human, UniProt Q8IU80 78-811); assay: cell-based or functional assay
T1 sequence: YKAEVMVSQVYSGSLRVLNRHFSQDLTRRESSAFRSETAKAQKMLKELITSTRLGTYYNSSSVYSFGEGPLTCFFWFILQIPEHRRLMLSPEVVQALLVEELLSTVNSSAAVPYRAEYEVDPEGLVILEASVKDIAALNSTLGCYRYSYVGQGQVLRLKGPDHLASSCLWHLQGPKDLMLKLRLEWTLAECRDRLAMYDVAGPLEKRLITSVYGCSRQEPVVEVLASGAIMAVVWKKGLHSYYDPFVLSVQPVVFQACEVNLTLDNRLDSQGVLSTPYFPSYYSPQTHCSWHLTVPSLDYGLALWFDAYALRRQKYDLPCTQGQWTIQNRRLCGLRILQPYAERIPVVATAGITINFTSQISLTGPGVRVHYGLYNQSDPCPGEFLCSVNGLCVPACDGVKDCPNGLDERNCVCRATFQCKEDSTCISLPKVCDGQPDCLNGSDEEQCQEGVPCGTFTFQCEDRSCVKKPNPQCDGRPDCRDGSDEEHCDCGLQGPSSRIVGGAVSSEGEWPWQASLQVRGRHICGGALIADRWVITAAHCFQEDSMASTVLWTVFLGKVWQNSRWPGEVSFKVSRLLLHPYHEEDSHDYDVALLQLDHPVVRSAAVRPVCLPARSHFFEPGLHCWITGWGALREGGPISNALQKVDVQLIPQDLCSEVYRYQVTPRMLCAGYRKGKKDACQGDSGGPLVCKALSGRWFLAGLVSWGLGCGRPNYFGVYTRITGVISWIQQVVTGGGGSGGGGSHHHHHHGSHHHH

[2] = target: T2, mouse matriptase-2 ECD protein his tag (mouse, UniProt Q9DBI0 80-811); assay: SPR (Biacore 8K), huIgG4PE captured on anti-human Fc, MTP-2 ECD as analyte, 1:1 fit
T2 construct: aa 80-811 of Q9DBI0 with C-terminal linker and His tag; also called mouse MTP-2 ECD; moMTP-2
T2 sequence: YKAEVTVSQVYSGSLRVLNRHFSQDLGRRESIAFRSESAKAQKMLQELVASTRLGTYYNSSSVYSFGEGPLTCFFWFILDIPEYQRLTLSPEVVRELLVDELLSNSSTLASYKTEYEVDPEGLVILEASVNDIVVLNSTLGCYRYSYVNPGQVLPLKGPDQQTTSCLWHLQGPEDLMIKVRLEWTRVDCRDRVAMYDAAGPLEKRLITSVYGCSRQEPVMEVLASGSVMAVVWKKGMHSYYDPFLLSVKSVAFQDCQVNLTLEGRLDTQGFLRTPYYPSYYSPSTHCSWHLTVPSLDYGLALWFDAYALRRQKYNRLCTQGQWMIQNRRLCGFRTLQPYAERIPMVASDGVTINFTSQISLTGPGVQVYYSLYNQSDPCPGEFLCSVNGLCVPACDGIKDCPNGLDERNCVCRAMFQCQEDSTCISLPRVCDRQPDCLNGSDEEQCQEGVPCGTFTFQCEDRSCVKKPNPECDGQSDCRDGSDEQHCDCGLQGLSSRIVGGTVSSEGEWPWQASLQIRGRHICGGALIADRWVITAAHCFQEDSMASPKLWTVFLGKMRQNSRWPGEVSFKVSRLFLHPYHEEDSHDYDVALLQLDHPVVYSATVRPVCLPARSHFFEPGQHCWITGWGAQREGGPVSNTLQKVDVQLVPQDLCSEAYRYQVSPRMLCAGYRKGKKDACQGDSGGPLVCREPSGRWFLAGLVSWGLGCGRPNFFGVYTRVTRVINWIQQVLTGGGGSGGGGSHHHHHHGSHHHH
Procedure: (§1) Off-rate screening was performed by surface plasmon resonance (SPR), using a Biacore 8K system (GE Healthcare). Anti-human Fc mix (˜1000 RU) were immobilised in both active and reference channels in HBS-P+ buffer (GE BR100671) pH 7.4. Anti-MTP-2 hulgG4PE antibodies were then captured for 60 sec at 10 μl/min at 1 μg/ml concentration (approximatively 35 and 50 RU were captured) only on the active channel. MTP-2 ECD protein analytes were then injected (at 100, 25, 6.25, 1.56 and 0 nM concentrations) for 120 sec (association time) at 30 μl/min and dissociation monitored for 600 sec. Multiple cycle kinetics mode was used with all 8 channels being used. Reference and background were subtracted from the sensorgrams for each antibody and data was fitted using a 1:1 interaction model in the Biacore evaluation software. Rmax, ka, kd globally fitted, RI=0.

[3] = target: T1, human matriptase-2 ECD protein his tag; assay: as above
Procedure: as §1

[4] = target: T1, human matriptase-2 ECD protein his tag; assay: SPR, his-tagged MTP-2 ECD protein (Table W)
Procedure: as §1
NORI-011, NORI-008, NORI-003 and NORI-006 were all found to have cross-reactive binding to human, mouse, cyno and rat MTP-2 ECD proteins. […] The true KD value for NORI-008 could not be measured accurately for human or mouse MTP-2 due to a very slow off-rate.

Inhibition enzymatic activity human MTP2 protein (IC50) [1]: 11.8 nM
Binding Late top conc [2]: 5.4
Stoichiometry [2]: 0.93
kon [2]: 12100 M⁻¹ s⁻¹
Binding Late top conc [3]: 10.7
Kd [3]: 1.71 nM
Stoichiometry [3]: 0.9
koff [3]: 4.6e-05 s⁻¹
kon [3]: 26900 M⁻¹ s⁻¹
B2: NORI-014 (antibody, human IgG4 S228P, lambda, V domains shown)
VH: EVQLVESGGGLIQAGRSLRLSCAASGFTFDEHVMYWVRQIPGKGLEWISSITWKSDIIAYADSVKGRFTISRDNAKNALYLQMNSLRAEDTALYYCAREKDGDFYYYYFAMDVWGQGTTVTVSS
VL: QSALTQPPSASGSPGQSVTLSCTGTSSDVGYYNYVSWYLQHPGKAPKLMIYEVSKRPSGVPDRFSGSKSANTASLTVSGLQAEDEADYYCSSYAGSNKVVFGGGTKVTVLG
notes: human IgG4PE, lambda

Kd [4]: 5.61 nM
B5: NORI-011 (antibody, human IgG4 S228P, lambda)
heavy: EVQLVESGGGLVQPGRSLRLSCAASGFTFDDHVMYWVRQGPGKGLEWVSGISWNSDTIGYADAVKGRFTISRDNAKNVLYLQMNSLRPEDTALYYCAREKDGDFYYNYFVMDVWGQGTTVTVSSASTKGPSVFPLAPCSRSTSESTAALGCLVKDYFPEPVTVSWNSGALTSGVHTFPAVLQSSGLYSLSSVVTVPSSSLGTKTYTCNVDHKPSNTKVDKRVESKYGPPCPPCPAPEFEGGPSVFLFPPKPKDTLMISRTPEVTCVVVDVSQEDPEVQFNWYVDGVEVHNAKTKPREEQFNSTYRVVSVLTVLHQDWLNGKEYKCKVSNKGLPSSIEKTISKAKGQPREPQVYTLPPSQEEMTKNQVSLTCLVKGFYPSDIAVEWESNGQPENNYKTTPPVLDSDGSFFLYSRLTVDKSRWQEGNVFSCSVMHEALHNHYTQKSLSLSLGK
light: QSALTQPPSASGSPGQSVTISCTGTSSDVGFYNFVSWYQQHPDKAPKVMIYEVSKRPSGVPDRFSGSKSGNTASLTVSGLQAEDEADYYCSSYAGSNKVVFGGGTKLTVLGQPKAAPSVTLFPPSSEELQANKATLVCLISDFYPGAVTVAWKADSSPVKAGVETTTPSKQSNNKYAASSYLSLTPEQWKSHRSYSCQVTHEGSTVEKTVAPTECS
notes: human IgG4PE, lambda; NORI-010 with a P124S mutation in the VH domain

Inhibition enzymatic activity human MTP2 protein (IC50) [1]: 8.28 nM
Binding Late top conc [2]: 39.2
Kd [2]: 0.129 nM
Stoichiometry [2]: 0.86
koff [2]: 3.05e-05 s⁻¹
kon [2]: 237000 M⁻¹ s⁻¹
Binding Late top conc [3]: 35.8
Kd [3]: 0.0129 nM
Stoichiometry [3]: 0.72
koff [3]: 1.47e-05 s⁻¹
kon [3]: 1.14e+06 M⁻¹ s⁻¹
B6: NORI-008 (antibody, human IgG4 S228P, kappa, V domains shown)
VH: QVQLQESGPGLVKPSETLSLTCSVSGGSVSSGRYYWTWIRQPPGKGLEWIGYISNSGNTNYNPSLKSRVTISLDTSKKQFSLSLSAVTAADTAVYYCARGFIYDYWFDPWGQGSLVTVSS
VL: DSQMTQSPSSLSASVGDRVTITCQASQDIDNYLNWYQQRPGKAPKLLIYDASKLETGVPSRFSGSGSGTDFTFTISSLQPEDFATYYCQQYGNLPITFGQGTRLDIKR
notes: human IgG4PE, kappa, in the in vitro assays; a mouse IgG1 format was used in one in vivo study only; also called NORI-008 hulgG4PE; NORI-008 IgG

Further lines, the binder ahead of its results:

B1: NORI-013 (antibody, human IgG4 S228P, lambda, V domains shown)
VH: B2 VH with M34I, T52S
VL: B2 VL
notes: human IgG4PE, lambda
Inhibition enzymatic activity human MTP2 protein (IC50) [1]: 5.63 nM
Binding Late top conc [2]: 7.5
Stoichiometry [2]: 1.47
kon [2]: 10500 M⁻¹ s⁻¹
Binding Late top conc [3]: 14.6
Kd [3]: 1.79 nM
Stoichiometry [3]: 1.05
koff [3]: 5.78e-05 s⁻¹
kon [3]: 32200 M⁻¹ s⁻¹

B3: NORI-006 (antibody, human IgG4 S228P, kappa, V domains shown)
VH: EVQLVESGGGLIKPGRSLRLSCTGSGFTFGDFGLSWFRQAPGKGLEWISFIRSKPYGGTTDYAASVKGRFTISRDDSKNVAYLQMNSLKTEDTAVYYCARNEILTGYYIFDYWGQGTLVTVSS
VL: DIQMTQSPSSLSASLGDRVTITCQASQDINNYLNWYQVQPGKAPKLLIFDASILETGVPSRFSGSGSGTDFSFTISSLQPEDIATYYCQQYDNLPLTFGGGTKVDFKR
notes: human IgG4PE, kappa
Inhibition enzymatic activity human MTP2 protein (IC50) [1]: 8.8 nM
Kd [4]: 2.93 nM

B4: NORI-003 (antibody, human IgG4 S228P, kappa, V domains shown)
VH: EVQLVESGGGLVKPGRSLRLSCTGSGFTFGDFGMSWFRQAPGKGLEWVGFIRSKPYGGTTDYAPSVRGRFSISRDDSKGIVYLQMNSLRTEDTAVYYCSRNEILTGYYIFDYWGQGTLVTVSS
VL: B3 VL with Q27H, N30T, N34I, V38Q, Q39K, K45R, S72T, I83F, D92Y, F106I
notes: human IgG4PE, kappa; NORI-002 with the free cysteine of the VH domain mutated (printed as 'C49C')
Kd [4]: 5.24 nM
